From US7304127
Several values for one entry are separate records, joined by “and”; a condition that tells them apart may be missing. Equal entries are not always repeated.

molecular target: HIV-1LAI envelope gp120 labeled with radioactive iodine (HIV-1 LAI), P03377; assay: 125I-gp120, peptide array

Row | Binder | counts minus background (counts per 20 min)
1 | LYAFLGAKFKTSAQHALT (modifications not checked) [CXCR4 301-318] | 156
2 | FNLDKLICGYHDEAISTV (modifications not checked) [STRL33 173-190] | 1070 and 1080
3 | SRGSSLKILSKGKRGGHS (modifications not checked) [CXCR4 321-338] | 169
4 | FGQVMCKSLLGIYTINFY (modifications not checked) [STRL33 97-114] | 1260 and 1350
5 | LNPILYAFLGAKFKTSAQ (modifications not checked) [CXCR4 297-314] | 274
6 | LLNLAISDLFFLLTVPFW (modifications not checked) [CCR5 69-86] | 144
7 | DLVFVCTLPFWAYAGIHE (modifications not checked) [STRL33 77-94] | 1120 and 1060
8 | FLPLLTMIVCYSVIIKTL (modifications not checked) [STRL33 201-218] | 1270 and 1200
9 | PFWAYAGIHEWVFGQVMC (modifications not checked) [STRL33 85-102] | 7260 and 7540
10 | FKTSAQHALTSVSRGSSL (modifications not checked) [CXCR4 309-326] | 173
11 | VCTLPFWAYAGIHEWVFG (modifications not checked) [STRL33 81-98] | 1820 and 1750
12 | HEWVFGQVMCKSLLGIYT (modifications not checked) [STRL33 93-110] | 3390 and 3470
13 | CQLLTGLYFIGFFSGIFF (modifications not checked) [CCR5 101-118] | 489
14 | LPLADLVFVCTLPFWAYA (modifications not checked) [STRL33 73-90] | 558 and 960
15 | HSSVSTESESSSFHSS (modifications not checked) [CXCR4 337-352] | 103
16 | LTDVFLVNLPLADLVFVC (modifications not checked) [STRL33 65-82] | 234 and 336
17 | GYHDEAISTVVLATQMTL (modifications not checked) [STRL33 181-198] | 754 and 1180
18 | DYHEDYGFSSFNDSSQEE (modifications not checked) [STRL33 5-22] | 3360 and 3690
19 | TVVLATQMTLGFFLPLLT (modifications not checked) [STRL33 189-206] | 2330 and 2390
20 | KLICGYHDEAISTVVLAT (modifications not checked) [STRL33 177-194] | 1360 and 1600
21 | DSSQEEHQAFLQFSKVFL (modifications not checked) [STRL33 17-34] | 870 and 2150
22 | MCKSLLGIYTINFYTSML (modifications not checked) [STRL33 101-118] | 1510 and 1280

Row | Binder | counts minus background (counts per 20 min)
23 | GLVGNSLVLVISIFYHKL (modifications not checked) [STRL33 45-62] | 164 and 95.5
24 | VCYSVIIKTLLHAGGFQK (modifications not checked) [STRL33 209-226] | 1330 and 1140
25 | EEHQAFLQFSKVFLPCMY (modifications not checked) [STRL33 21-38] | 2320 and 1820
26 | LGAKFKTSAQHALTSVSR (modifications not checked) [CXCR4 305-322] | 200
27 | DYGFSSFNDSSQEEHQAF (modifications not checked) [STRL33 9-26] | 8580 and 8910
28 | PQIIYGNVFNLDKLICGY (modifications not checked) [STRL33 165-182] | -18.5 and -37.5
29 | SLKILSKGKRGGHSSVST (modifications not checked) [CXCR4 325-342] | 285
30 | AQHALTSVSRGSSLKILS (modifications not checked) [CXCR4 313-330] | 147
31 | AFLQFSKVFLPCMYLVVF (modifications not checked) [STRL33 25-42] | 1420 and 1360
32 | KRGGHSSVSTESESSSFH (modifications not checked) [CXCR4 333-350] | 167
33 | FWAHYAAAQWDFGNTMCQ (modifications not checked) [CCR5 85-102] | 212
34 | SSFNDSSQEEHQAFLQFS (modifications not checked) [STRL33 13-30] | 2690 and 2760
35 | LSKGKRGGHSSVSTESES (modifications not checked) [CXCR4 329-346] | 185
36 | FLVNLPLADLVFVCTLPF (modifications not checked) [STRL33 69-86] | 70.5 and 51.5
37 | ALAFFHCCLNPILYAFLG (modifications not checked) [CXCR4 289-306] | 181
38 | FHCCLNPILYAFLGAKFK (modifications not checked) [CXCR4 293-310] | 123
39 | MYLVVFVCGLVGNSLVLV (modifications not checked) [STRL33 37-54] | 168 and 236
40 | VDRFIVVVKATKAYNQQA (modifications not checked) [STRL33 125-142] | 104 and 53.5
41 | IFYHKLQSLTDVFLVNLP (modifications not checked) [STRL33 57-74] | 1280 and 1260
42 | TDIYLLNLAISDLFFLLT (modifications not checked) [CCR5 65-82] | 38
43 | AISDLFFLLTVPFWAHYA (modifications not checked) [CCR5 73-90] | 41
44 | GNTMCQLLTGLYFIGFFS (modifications not checked) [CCR5 97-114] | 941

Row | Binder | counts minus background (counts per 20 min)
45 | NSLVLVISIFYHKLQSLT (modifications not checked) [STRL33 49-66] | 1260 and 1380
46 | LFFLLTVPFWAHYAAAQW (modifications not checked) [CCR5 77-94] | 173
47 | LTSVSRGSSLKILSKGKR (modifications not checked) [CXCR4 317-334] | 183
48 | LVISIFYHKLQSLTDVFL (modifications not checked) [STRL33 53-70] | 1620 and 1780
49 | QWDFGNTMCQLLTGLYFI (modifications not checked) [CCR5 93-110] | 1020
50 | EAISTVVLATQMTLGFFL (modifications not checked) [STRL33 185-202] | 3970 and 3750
51 | YAGIHEWVFGQVMCKSLL (modifications not checked) [STRL33 89-106] | 5910 and 6250
52 | LTVPFWAHYAAAQWDFGN (modifications not checked) [CCR5 81-98] | 306
53 | VIIKTLLHAGGFQKHRSL (modifications not checked) [STRL33 213-230] | 962 and 682
54 | ATQMTLGFFLPLLTMIVC (modifications not checked) [STRL33 193-210] | 2370 and 2440
55 | KVTSLLIWVISLLVSLPQ (modifications not checked) [STRL33 149-166] | -39.5 and -118
56 | MAEHDYHEDYGFSSFNDS (modifications not checked) [STRL33 1-18] | 1180 and 1320
57 | LTMIVCYSVIIKTLLHAG (modifications not checked) [STRL33 205-222] | 2790 and 2650
58 | YGNVFNLDKLICGYHDEA (modifications not checked) [STRL33 169-186] | -41.5 and -20.5
59 | VISLLVSLPQIIYGNVFN (modifications not checked) [STRL33 157-174] | -60.5 and -128
60 | LLIWVISLLVSLPQIIYG (modifications not checked) [STRL33 153-170] | 42.5 and 75.5
61 | QAKRMTWGKVTSLLIWVI (modifications not checked) [STRL33 141-158] | -71.5 and -31.5
62 | YAAAQWDFGNTMCQLLTG (modifications not checked) [CCR5 89-106] | 494
63 | LKSMTDIYLLNLAISDLF (modifications not checked) [CCR5 61-78] | 210
64 | VSSPIYDINYYTSEPCQK (modifications not checked) [CCR5 5-22] | 383
65 | MLILTCITVDRFIVVVKA (modifications not checked) [STRL33 117-134] | 298 and 228
